Data on 18 sequences can be found in a protein production outcome set (Wang et al. 2014).
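Also: failed if final PepcDB status was selected cloned or expressed and not failed if soluble or beyond.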

The nature of this data set: label from the status in PepcDB records.
On to “AADERVKEMWAYSPSMDRNVPLVVITADESAGPRPVIYLLNGGDGGEGAANWVMQTDVLDFYLEKNVNVVIPMEGKFSYYTDWVEENASLGGKQMWETFLVKELPGPLEEKLNTDGQRAIAGMSMSATTSLLFPQHFPGFYDAAASFSGCAATSSLLPWEYLKLTLDRGNATPEQMWGPRGGEYNIYNDALINSDKLRGTELYVSNASGLAGEWESVDSPRFEGLNQQVQSIAMAETVVTGGIIEAATNKCTHDLKAKLDSAGIPADWNLRPTGTHSWGWWQDDLRGSWTTFARAFEL”, for which the protein production result is given as “failed”.
Turning to “AAGAVRTDPVIHLHGSRSEDEPTTVLVHAGTATIMPYRALITEIRRRSPGLAEVVGVEVPDLSGFLAAPPDGLIERMAADYARALTADGRHRFHVVGYCLGGLIATEVARNLAESGAEVESLTVISSHSPRFRLDDELLAEYSFAVMMGIDPADLGFPDDQYRVAAAADTVLAASPGVLPDGGLAALGGEFEDVASRFRRLADVPRATRIARMCEAVPASAGTYEPDHMTRLFLAFRQSVFAITRYRAEPYAGDITFLRHDGAYPFPGSKDAVTAYWEELTLGDLDIVDIGGDHYSCLSVEHAPGILKTLGELTQGAITR”, the protein production result was “failed”.
“AARNLSKEEYAANHPAGRIGKSLIFKVKDVMKKQEELPVCKEGDLIMDQLVELTSKGCGCLLVVDEHSRLIGTFTDGDLRRTLKASGEAIFKLSVGEMCNRKPRTIGPETMAVEAMKKMESPPSPVQFLPVVNEDNTLIGIVTLHGLVSA”: the protein production entry was “failed”.
For “ACEQNEDWVVNEPMQSFEENPEYAPLNTIPDWVSEKVTPKEYELWRTMSSRYEINYSFLKKDISEKRKKEIYDCINNICERIEKGQINKYEGFLNIADEDGTTLSDSQYFGRIATRSPEGGAEYKTNGCTLYTHSLGPYIKAAVTYKKSDDDVTITSSSVYTGSPYLGNDPSFSGASSVSYDKDKKLIAASCSGTLSFKDGSRKVEVTVQKTGFMIP”, the protein production entry is “not failed”.
To “ADKFTFIGFLSKKDSEQKKQLEELMPLDSTLIFYESPFRVGKTLENVRAIFGEKTKVVLARELTKKFESYYRGDITQALNFIKSNRPRGEFVLLIKKIHEA” belongs “failed”; to “AEIVEGRDYTVLSAPQPTEGDSEHIEVIEFFWYGCPHCSDLHPHLSRWLENKPADVAFRFVPAILRNNWVPGAKTFYAMESLGLTQTLHDKVYHAIHREKTDLSKEATLFDWIGKQGVDRDKFIGAYNSFTVQNQANRSAQMIRQYKLTGVPALVVDGRYLTSGKAGGTPQDTISVLNQLIEK”, “failed”; to “AEMKTYSHRTMPSACTLVMCSSVESGLPGRDGRDGREGPRGEKGDPGLPGAAGQAGMPGQAGPVGPKGDNGSVGEPGPKGDTGPSGPPGPPGVPGPAGREGPLGKQGNIGPQGKPGPKGEAGPKGEVGAPGMQGSAGARGLAGPKGERGVPGERGVPGNTGAAGSAGAMGPQGSPGARGPPGLKGDKGIPGDKGAKGESGLPDVASLRQQVEALQGQVQHLQAAFSQYKKVELFPNGQSVGEKIFKTAGFVKPFTEAQLLCTQAGGQLASPRSAAENAALQQLVVAKNEAAFLSMTDSKTEGKFTYPTGESLVYSNWAPGEPNDDGGSEDCVEIFTNGKWNDRACGEKRLVVCEF”, “failed”.
In the case of “AGGEDRGDGEPVSVVTVRVQYLEDTDPFACANFPEPRRAPTCSLDGALPLGAQIPAVHRLLGAPLKLEDCALQVSPSGYYLDTELSLEEQREMLEGFYEEISKGRKPTLILRTQLSVRVNAILEKLYSSSGPELRRSLFSLKQIFQEDKDLVPEFVHSEGLSCLIRVGAAADHNYQSYILRALGQLMLFVDGMLGVVAHSDTIQWLYTLCASLSR” it was “failed”; in that of “AGVMTGAKFTQIQFGMTRQQVLDIAGAENCETGGSFGDSIHCRGHAAGDYYAYATFGFTSAAADAKVDSKSQEKLLAPSAPTLTLAKFNQVTVGMTRAQVLATVGQGSCTTWSEYYPAYPSTAGVTLSLSCFDVDGYSSTGAYRGSAHLWFTDGVLQGKRQWDLV”, “not failed”; in that of “AGVSISAQNLIKNEKFATEVTNKVTNPSKATAGEWFIMNNEADGVTTIAWEQTGDAKYPNAMKIDNSGAEKNTSWYKAFLGQRITDGLEKGIYVLTFYAKAKEAGTPVSVYIKQTNEEKNDNGKLNTTFFMRRDYDADAQPNASGAQYNFKIKDADKWTKVVVYYDMGQVVNAISSKKSNPALEVSDTDDDAAILKDCYVAILGQNKGGVVEISDVTLKKK”, “not failed”.
In the case of “AGVVVPKYTPSTENPGGPGEEPGDGLIDPAEPLDRGFMHLKGRELKSLNSISITGLNDGEKVILSTLAGLAARVTGDQVYINEGGPSSVWLKQMQNKYGIPVNTYNALAPLVQHYVETGVIKGYIVYTPYSEGQSHSINVATSLCGLLRGIAVPESLVDKVKAMGVTTELMDVRSYDEKWLYENYKDQLDKSLAADMKPEIFHHLRDYITMTNAFAFYDYNARRDWSWRTSILKDLDKGAYCFGYYDLDEWGMVNNASQLGVSMLPTDQAANLATLSSIYDTTGLKQRPATKEVVTEENVHYVTFLVSDGDNIAFNLWGQQGYMDHDLHGQFPLGYTISPSLYDLAPAALRWYYENSKEGDYFVAGPSGSSYIFPSKMSDADLDDYLAKLNEYVDKSGLNICNILDQKIMDNPKVYNKYLAQPNIDAIFYTGYGEKGDGRIKFSDNGKPVIEQRSVLWEGIDGGSNRGEESTVISQINSRSANPHSADGYTFVFVHCWTKNQQSIKTVIDGLNDNVRVVPVDQFVQLVKQNLGPK” it was “not failed”; in that of “AHHHHHHGSVVKRTMTKKFLEEAFAGESMAHMRYLIFAEKAEQEGFPNIAKLFRAIAYAEFVHAKNHFIALGKLGKTPENLQMGIEGETFEVEEMYPVYNKAAEFQGEKEAVRTTHYALEAEKIHAELYRKAKEKAEKGEDIEIKKVYICPICGYTAVDEAPEYCPVCGAPKEKFVVFE”, “not failed”.
As to “AIAAIAEKAKGKEWTSTEKSREEDQQASNQPNSIALPGTSAKRTKEKMSVKGSKVLCPKKKAEHTDNPRPQKKIPIPPLPSKLPPVNLIHRDILRAWCQQLKLSSKGQKLDAYKRLCAFAYPNQKDFPSTAKEAKIRKSLQKKLKVEKGETSLQSSETHPPEVALPPVGEPPALENSTALLEGVNTVVVTTSAPEALLASWARISARARTPEAVESPQEASGVRWCVVHGKSLPADTDGWVHLQFHAGQAWVPEKQEGRVSALFLLPASNFPPPHLEDNMLCPKCVHRNKVLIKSLQWE”, the protein production entry is “failed”.
Consider “AIAEHKEVVLLLLLFLKSGQGEPLDDYVNTQGPSLFSVTKKQLGAGSREECAAKCEEDKEFTCRAFQYHSKEQQCVIMAENRKSSIIIRMRDAVLFEK”, for which the protein production result is reported as “not failed”.
Take “AIAQGENVDHAQPISTWSAEQELHLVVFTKPPIAGLTKQRLSREIGSTLATRISAALVENTLATAYDWLQGLDLQAGGTGAVHLYYTPVESEQAKAECVERWLDDSVRHRYPAFRIAPQKASKVQSTGDQKQDPLGSRLIQAFTEVTSLVDESRDAHVVVIGSDCPALDTAVLQQAFAALHAGHGAVIGPAQDGGYYLLGLAFAAAERTRWARVIYAAFGPHLVFSQNDVCARTVEALRNDGVRTICLPVTLNDVDTAQDLVHLPASMRPREWFSSANARLHKTSDLVETAPAPGSTTCDEEVDADKLDPSVQNVCSRQV”: the protein production entry is reported as “not failed”.
In the case of “AIATYPTNLEIIGGQGGSSFSFTGENNGASLEKIWVWVGGWQIKAVRAWLSDGRDETFGVPSGSHQEYVFTPGECFTSLSLWGNGAGTRLGAIKFKTNKGGEFFAHMTSWGLKTEYPMDVGSGYCLGIVGRGGSDIDCMGFMFLNAVQSTVLTNVNYPTINQLIPKVATEEIKSVSFENKTSVKQEQKVETSKKVIKTSSWSMTKSFSSTFSVEVSAGIPEIAEVSTGFSISFGVESTHSLEQTDEKNETLTTTVEVPPKKKVDVHITIGRASFDLPYTGTVKITCKNGSVLQYETKGQYKGVAYTDIKVNTVEKDL” it was “not failed”.
With “AIQKQMLVPEVVVNKDGDWVTPVMKDEGSIQYFVVFRFINGNEIIEPKDKDYEKLGSFMRMFHEKTNGVLKSVPQTWRGYERPIYSEKKMIHEPLQCLLNTSFLSYEDKNKCLRIAERIQELTNSIQLREKQFVHGDMHFGNILVDKEDWYLLDFDECGFGYKEFDIGVPRLHLIASGQLEDAWGNFMMGYGENIS”, the protein production result is reported as “failed”.
In the case of “AIQVFDVTAVNISATSLTLIWKVSDNESSSNYTYKIHVAGETDSSNLNVSEPRAVIPGLRSSTFYNITVCPVLGDIEGTPGFLQVHTPPVP” it was “not failed”.
